# According to publication PMC8899190 (2022):
# T1: Avi-tagged, biotinylated h14-3-3ß_(nY213) (human, UniProt P31946 1-246, 3-nitrotyrosine at 213; biotin on the N-terminal Avi tag)
# T1 chain: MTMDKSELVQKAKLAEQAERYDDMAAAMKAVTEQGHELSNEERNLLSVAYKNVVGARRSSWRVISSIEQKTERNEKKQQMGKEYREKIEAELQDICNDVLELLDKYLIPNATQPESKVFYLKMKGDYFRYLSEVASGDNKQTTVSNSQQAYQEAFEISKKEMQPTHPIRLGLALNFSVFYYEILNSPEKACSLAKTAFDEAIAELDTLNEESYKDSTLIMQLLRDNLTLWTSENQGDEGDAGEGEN
# T2: Avi-tagged, biotinylated h14-3-3ß WT (human, UniProt P31946 1-239, biotin on the N-terminal Avi tag)
# T2 chain: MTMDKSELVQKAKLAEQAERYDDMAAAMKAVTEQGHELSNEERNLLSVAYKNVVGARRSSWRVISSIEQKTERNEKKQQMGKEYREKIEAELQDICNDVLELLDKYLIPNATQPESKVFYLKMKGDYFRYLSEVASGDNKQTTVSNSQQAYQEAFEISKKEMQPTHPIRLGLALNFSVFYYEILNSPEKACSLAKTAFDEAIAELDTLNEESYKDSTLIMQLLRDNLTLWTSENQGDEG
# T3: Avi-tagged, biotinylated h14-3-3ß_(nY130) (human, UniProt P31946 1-246, 3-nitrotyrosine at 130; biotin on the N-terminal Avi tag)
# T3 chain: T1 chain
# B1: Nb-G5 (C115S) (VHH)
# VHH: QVQLQESGGGLVQPGGSLRLSCAASKNIANFDSMAWYRRSPGKERDLVARLYSDGGTNYEDSVKGRFNISTDIEKNTVYLQMNNLKLEDTARYYCRADLGLFDTSEFPGQGTQVTVSS
# How the values were obtained:
# Test in all cases: BLI
# [1] = target: T1, Avi-tagged, biotinylated …
# [2] = target: T2, Avi-tagged, biotinylated h14-3-3ß WT
# [3] = target: T3, Avi-tagged, biotinylated …
binder,measurement,setting,value
B1,Kd,[1],104 nM
same,Kd,[2],91 nM
same,Kd,[3],100 nM
